According to the supplement of paper PMC12042874:
± gives the uncertainty stated by the source.

Experiment: amyloid nucleation score (Sup35N fusion, yeast selection) (log enrichment); library NNK1; higher = more nucleation; inactive = no reads after selection
Summary of the method: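 Three technical output replicates were used for random libraries. Psi-negative yeast expressing peptides of 20 random codons fused to Sup35N were induced with 100 μM copper sulfate for 24 hours and grown 7 days at 30°C on medium lacking adenine and uracil, and input and output plasmid inserts were Illumina-sequenced, excluding sequences with under 100 input reads. The nucleation score is the DiMSum log enrichment of output over input reads, centred on the mode score of non-aggregating sequences.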

| Substance | amyloid nucleation score |
| --- | --- |
| YFTERL | 0.122 ± 0.44 |
| YFYDLSRCLFIHCTVGSQIL | 7.769 ± 0.044 |
| YGFKLGMFTGSIAMYAGHLI | -0.198 ± 0.31 |
| YGGISMLLCRSVWRFNRQYI | 0.547 ± 0.76 |
| YGHCFDFGVRTVLFNGFSLI | 1.29 ± 0.84 |
| YGLDPHSAAEALLVRPNTGR | -0.18 ± 0.41 |
| YGRKISYLKFLKCVDVVLGW | 0.303 ± 0.28 |
| YGSMVMDVEAR | -0.001 ± 0.45 |
| YGSSLAAWVRLCVLTGDSRQ | 1.46 ± 0.38 |
| YGVNLPALLFKYAISGSLVG | 1.03 ± 0.53 |
| YGVRFGVFLSTCLNFSGEYR | -0.178 ± 0.42 |
| YGYGY | -0.217 ± 0.23 |
| YHANICSKFSSLYSNL | 1.01 ± 0.93 |
| YHGVTLVSLLRYKLW | 1.28 ± 0.27 |
| YHTSRYRCTMYMGNSHGAMP | 0.228 ± 0.97 |
| YHVYSVRSNVWALLKIRLV | 1.14 ± 0.58 |
| YIDVGICYGGDERVLFLV | 1.2 ± 0.61 |
| YIFAAWGGNKTHLCGQIKY | 0.862 ± 0.18 |
| YIKWSMIRFT | -0.66 ± 0.46 |
| YIVRQECSRIQYLTDM | 1.22 ± 0.73 |
| YIVTTLQYDRSLASKVDEGT | -0.489 ± 0.56 |
| YIWRNKKSAIRCDSKTVRRN | -0.286 ± 0.35 |

| Substance | amyloid nucleation score |
| --- | --- |
| YKFKGSFVSIRQGAEVGYSA | -0.361 ± 0.69 |
| YKGLFR | 0.065 ± 0.45 |
| YKGNKCCVKMMACWGTGCLP | 1.98 ± 0.37 |
| YKMCFSKVYESTEPMMCTGV | -0.904 ± 0.8 |
| YKNVCSDSVTLRKPGRVVLL | -0.278 ± 0.67 |
| YLALVSANNASKKAVVKSTE | -0.054 ± 0.72 |
| YLCDSSLGVVYSFLHCRMVD | -0.369 ± 0.67 |
| YLCFKYVLGCNRWSVAVVNF | inactive |
| YLFPDVTRICCMGWSFTLLS | 5.27 ± 0.053 |
| YLFQAGQDTRLLIC | 0.236 ± 0.63 |
| YLKINTTYGCDI | 1.93 ± 0.34 |
| YLPYVSLQSVHWIMVGWLN | -0.163 ± 0.8 |
| YLREVYFFMGVWDRK | 0.15 ± 0.44 |
| YLVSTSRWGYLVLTLMWKEG | inactive |
| YLVVPERLVANRMVS | -1.68 ± 2.4 |
| YLYIRLPVITVRLDWLFGAK | 0.464 ± 0.84 |
| YLYVGS | -0.352 ± 0.37 |
| YMEKWAWRVVNESCASVVPP | -0.272 ± 0.89 |
| YMGMLA | 2.34 ± 0.12 |
| YMLMKGSVRYH | 2.49 ± 0.2 |
| YNDYACRYCFLVGTMD | 7.615 ± 0.052 |
| YNFVSCLVYRK | 6.9 ± 0.071 |

| Substance | amyloid nucleation score |
| --- | --- |
| YNIVPSADWVSWHGRLTGRR | 1.42 ± 0.61 |
| YNKCLCAVLSRMFTGWHISA | 0.795 ± 0.88 |
| YNPNGLTMGCGHKYTVEHTT | 0.128 ± 0.47 |
| YNSVLVTYYCKFSHTDSDSI | 3.04 ± 0.18 |
| YNTSGNTRS | -0.269 ± 0.64 |
| YNVGLLGLFRCYAQKVGLWE | inactive |
| YNYSRYIRERFWFYT | 0.115 ± 0.38 |
| YPAVNRWSLAVFSVRVRLAG | -0.046 ± 0.38 |
| YPGGILIRRVNIKLDGAAIV | -0.869 ± 0.68 |
| YPLINTLDMHRLCRIYCVNE | -0.514 ± 0.54 |
| YPLSLRYQCI | 0.2 ± 0.25 |
| YPWIFCFEILHYYQLVRLWG | -1.13 ± 0.55 |
| YQDVIPNPVHRYTV | 0.371 ± 0.31 |
| YQLTQLGLLS | 0.025 ± 0.49 |
| YQVMLRSCLYLLYFSMFNCL | 1.27 ± 0.79 |
| YRFSGEGALLASKWLINNCT | -0.224 ± 0.4 |
| YRGMGTTPKFT | 0.356 ± 1 |
| YRGYDKREYCSHFFTWDTYG | 0.821 ± 0.72 |
| YRNEESVSKSHGCHDMSWFA | 0.505 ± 0.54 |
| YRPNLLNSLTPTKTSIGSVY | 1.11 ± 0.6 |
| YRPWMRYLTLIGNYRHAGHS | 0.633 ± 0.62 |
